According to US20240100176A1 (Eli Lilly, published 2024):

What was measured:
Assay in all cases: capture ELISA: Ab1 on anti-human IgG Fc, His-tagged receptor at 1 µg/mL, anti-His HRP
[1] = target: T1, hexahistidine tagged human IL-4Rα ECD T31R (human, UniProt P24394 26-232)
T1 construct: not shown: hexahistidine tag
Text: (§1) Example 2d. […] Briefly, thirty surface amino acid residue substitutions were introduced individually into hexahistidine tagged human IL-4Rα extra cellular domain (ECD) as follows: K2D, E6R, K22D, P26R, T31R, F41A, L42G, L43G, E45R, E52R, G56R, D66R, A71R, Q82G, K87D, E94R, H107A, D108R, P124R, D125R, D143R, R148D, L155R, R160D, S164R, S168R, Q181R, P192R, K195D, or H197G. Each mutant protein having a single amino acid residue substitution as described above was transiently expressed in CHO cells and purified using standard immobilized metal affinity chromatography techniques. […] The plates were then washed 3 times with PBST and the exemplified human IL-4Rα antibody was added to the wells at a final concentration of 1 μg/mL in PBS-casein and incubated for 1 hour at room temperature. The plates were washed 3 times with PBST, the IL-4Rα mutant proteins were serially diluted 5-fold from 1 μg/mL for 3 points. in PBS-casein and added to the plate at 50 μL/well and incubated for 1 hour at room temperature. The plates were washed 3 times with PBST and a 1000-fold dilution of anti-histidine tag antibody HRP conjugate (R&D Systems, Cat. #MAB050H) in PBS-casein was added and incubated for 45 minutes at room temperature. The plates were washed 3 times, TMB substrate (Pierce, Cat. #34028) was added per manufacturer instructions, the reaction was quenched with H₂SO₄, and absorbance was read at 450 nm on an ELISA plate reader.

[2] = target: T2, hexahistidine tagged human IL-4Rα ECD R148D (human, UniProt P24394 26-232)
T2 construct: not shown: hexahistidine tag
Text: as §1

[3] = target: T3, hexahistidine tagged human IL-4Rα ECD P26R (human, UniProt P24394 26-232)
T3 construct: not shown: hexahistidine tag
Text: as §1

[4] = target: T4, hexahistidine tagged human IL-4Rα ECD T108R (human, UniProt P24394 26-232)
T4 construct: also called D108R; not shown: hexahistidine tag
Text: as §1

[5] = target: T5, hexahistidine tagged human IL-4Rα ECD H197G (human, UniProt P24394 26-232)
T5 construct: not shown: hexahistidine tag
Text: as §1

[6] = target: T6, hexahistidine tagged human IL-4Rα ECD R160D (human, UniProt P24394 26-232)
T6 construct: not shown: hexahistidine tag
Text: as §1

[7] = target: T7, hexahistidine tagged human IL-4Rα ECD F41A (human, UniProt P24394 26-232)
T7 construct: not shown: hexahistidine tag
Text: as §1

[8] = target: T8, hexahistidine tagged human IL-4Rα ECD S164R (human, UniProt P24394 26-232)
T8 construct: not shown: hexahistidine tag
Text: as §1

[9] = target: T9, hexahistidine tagged human IL-4Rα ECD L43G (human, UniProt P24394 26-232)
T9 construct: not shown: hexahistidine tag
Text: as §1

[10] = target: T10, hexahistidine tagged human IL-4Rα ECD K2D (human, UniProt P24394 26-232)
T10 construct: not shown: hexahistidine tag
Text: as §1

[11] = target: T11, hexahistidine tagged human IL-4Rα ECD D143R (human, UniProt P24394 26-232)
T11 construct: not shown: hexahistidine tag
Text: as §1

[12] = target: T12, hexahistidine tagged human IL-4Rα ECD S168R (human, UniProt P24394 26-232)
T12 construct: not shown: hexahistidine tag
Text: as §1

[13] = target: T13, hexahistidine tagged human IL-4Rα ECD K195D (human, UniProt P24394 26-232)
T13 construct: not shown: hexahistidine tag
Text: as §1

[14] = target: T14, hexahistidine tagged human IL-4Rα ECD E45R (human, UniProt P24394 26-232)
T14 construct: not shown: hexahistidine tag
Text: as §1

[15] = target: T15, hexahistidine tagged human IL-4Rα ECD E94R (human, UniProt P24394 26-232)
T15 construct: not shown: hexahistidine tag
Text: as §1

[16] = target: T16, hexahistidine tagged human IL-4Rα ECD H107A (human, UniProt P24394 26-232)
T16 construct: not shown: hexahistidine tag
Text: as §1

[17] = target: T17, hexahistidine tagged human IL-4Rα ECD K22D (human, UniProt P24394 26-232)
T17 construct: not shown: hexahistidine tag
Text: as §1

[18] = target: T18, hexahistidine tagged human IL-4Rα ECD E52R (human, UniProt P24394 26-232)
T18 construct: not shown: hexahistidine tag
Text: as §1

T17 sequence (P24394 26-232 K47D): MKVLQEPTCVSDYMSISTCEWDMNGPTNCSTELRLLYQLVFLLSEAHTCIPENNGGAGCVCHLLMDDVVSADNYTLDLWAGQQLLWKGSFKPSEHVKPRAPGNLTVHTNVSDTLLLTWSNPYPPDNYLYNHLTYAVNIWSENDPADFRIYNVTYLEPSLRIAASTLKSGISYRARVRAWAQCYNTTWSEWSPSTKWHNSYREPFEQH
T6 sequence (P24394 26-232 R185D): as the sequence (P24394 26-232 K47D) above, with D22K, R160D counted along it
T14 sequence (P24394 26-232 E70R): as the sequence (P24394 26-232 K47D) above, with D22K, E45R counted along it
T1 sequence (P24394 26-232 T56R): as the sequence (P24394 26-232 K47D) above, with D22K, T31R counted along it
T16 sequence (P24394 26-232 H132A): as the sequence (P24394 26-232 K47D) above, with D22K, H107A counted along it
T15 sequence (P24394 26-232 E119R): as the sequence (P24394 26-232 K47D) above, with D22K, E94R counted along it
T2 sequence (P24394 26-232 R173D): as the sequence (P24394 26-232 K47D) above, with D22K, R148D counted along it
T11 sequence (P24394 26-232 D168R): as the sequence (P24394 26-232 K47D) above, with D22K, D143R counted along it
T18 sequence (P24394 26-232 E77R): as the sequence (P24394 26-232 K47D) above, with D22K, E52R counted along it
T9 sequence (P24394 26-232 L68G): as the sequence (P24394 26-232 K47D) above, with D22K, L43G counted along it
T10 sequence (P24394 other isoform, or with tags, fused parts or gaps): as the sequence (P24394 26-232 K47D) above, with K2D, D22K counted along it

ELISA (OD450) [1]: 1.64 OD450
ELISA (OD450) [2]: 1.76 OD450
ELISA (OD450) [3]: 1.66 OD450
ELISA (OD450) [4]: 1.88 OD450
ELISA (OD450) [5]: 1.85 OD450
ELISA (OD450) [6]: 1.91 OD450
ELISA (OD450) [7]: 1.76 OD450
ELISA (OD450) [8]: 1.92 OD450
ELISA (OD450) [9]: 1.7 OD450
ELISA (OD450) [10]: 2.05 OD450
ELISA (OD450) [11]: 1.75 OD450
ELISA (OD450) [12]: 1.88 OD450
ELISA (OD450) [13]: 1.91 OD450
ELISA (OD450) [14]: 1.7 OD450
ELISA (OD450) [15]: 1.73 OD450
ELISA (OD450) [16]: 1.89 OD450
ELISA (OD450) [17]: 1.67 OD450
ELISA (OD450) [18]: 1.73 OD450
B1: anti-human IL-4Rα antibody Ab1 (antibody, human IgG4 S228P, kappa)
heavy: QVQLVESGGGLVQPGGSLRLSCVASGFTFSHSSMNWVRQAPGKGLEWVSYISRATGAVYYADSVKGRFTISRDNAKNSLYLQMNSLRDEDTAVYYCAREPVFDYWGQGTLVTVSSASTKGPCVFPLAPCSRSTSESTAALGCLVKDYFPEPVTVSWNSGALTSGVHTFPAVLQSSGLYSLSSVVTVPSSSLGTKTYTCNVDHKPSNTKVDKRVESKYGPPCPPCPAPEFLGGPSVFLFPPKPKDTLMISRTPEVTCVVVDVSQEDPEVKFNWYVDGVEVHNAKTKPREEQFNSTYRVVSVLTVLHQDWLNGKEYKCKVSNKGLPSSIEKTISKAKGQPREPQVYTLPPSREEMTKNQVSLTCLVKGFYPSDICVEWESNGQPENNYKTTPPVLDSDGSFFLYSRLTVDKSRWQQGNVFSCSVMHEALHNHYTQKSLSLSLG
light: DIQMTQSPSAMSASVGDRVTITCRASQDISNYLAWFQQKPGKVPTRLIYAASSLQSGVPSRFSGSGSGTEFTLTISSLQPEDFATYYCLQWSSYPRTFGQGTKVEIKRTVAAPSVFIFPPSDEQLKSGTASVVCLLNNFYPREAKVQWKVDNALQSGNSQESVTEQDSKDSTYSLSSTLTLSKADYEKHKVYACEVTHQGLSSPVTKSFNRGEC
notes: human kappa light chain; also called anti-human IL-4Rα Ab1; unconjugated Ab1
